In this test the target is T1, polo-like kinase 1 (PLK1), full-length (human, UniProt P53350 1-603).
T1 construct: Endogenous, FLAG-tagged and His-tagged forms are merged here; also called FLAG-PLK1; Flag-PLK1
The test can be described thus: CoIP of FLAG-PLK1 with Myc-RXRα mutants in HeLa cells (FIG. 27).

Here are results for one molecule from patent US20240034785A1, “RXR-ALPHA BINDERS AND RXR-ALPHA/PLK1 MODULATORS” (NUCMITO PHARMACEUTICALS CO. LTD., priority 2020, published 2024).

T1 sequence (P53350 whole entry): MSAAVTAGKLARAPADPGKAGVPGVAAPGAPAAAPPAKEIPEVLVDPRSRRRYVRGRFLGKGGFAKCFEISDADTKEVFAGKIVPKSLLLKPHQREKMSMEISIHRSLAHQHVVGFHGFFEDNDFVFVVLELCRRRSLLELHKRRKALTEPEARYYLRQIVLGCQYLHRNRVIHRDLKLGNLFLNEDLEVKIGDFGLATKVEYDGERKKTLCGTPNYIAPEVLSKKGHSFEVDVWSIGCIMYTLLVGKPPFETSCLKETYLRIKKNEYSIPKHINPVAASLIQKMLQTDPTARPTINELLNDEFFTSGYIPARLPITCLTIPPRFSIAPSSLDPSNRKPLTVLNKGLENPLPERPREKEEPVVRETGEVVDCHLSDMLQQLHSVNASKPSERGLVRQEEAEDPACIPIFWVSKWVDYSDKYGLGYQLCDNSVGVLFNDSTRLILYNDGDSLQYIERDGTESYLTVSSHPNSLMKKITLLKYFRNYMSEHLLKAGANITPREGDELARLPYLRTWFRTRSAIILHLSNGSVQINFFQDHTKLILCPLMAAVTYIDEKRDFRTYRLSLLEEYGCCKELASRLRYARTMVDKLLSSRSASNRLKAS

B1: RXRα-S56A/S70A (RXRα-2A) (receptor)
chain: MDTKHFLPLDFSTQVNSSLTSPTGRGSMAAPSLHPSLGPGIGSPGQLHSPISTLSAPINGMGPPFSVISAPMGPHSMSVPTTPTLGFSTGSPQLSSPMNPVSSSEDIKPPLGLNGVLKVPAHPSGNMASFTKHICAICGDRSSGKHYGVYSCEGCKGFFKRTVRKDLTYTCRDNKDCLIDKRQRNRCQYCRYQKCLAMGMKREAVQEERQRGKDRNENEVESTSSANEDMPVERILEAELAVEPKTETYVEANMGLNPSSPNDPVTNICQAADKQLFTLVEWAKRIPHFSELPLDDQVILLRAGWNELLIASFSHRSIAVKDGILLATGLHVHRNSAHSAGVGAIFDRVLTELVSKMRDMQMDKTELGCLRAIVLFNPDSKGLSNPAEVEALREKVYASLEAYCKHKYPEQPGRFAKLLLRLPALRSIGLKCLEHLFFFKLIGDTPIDTFLMEMLEAPHQMT
notes: Myc-tagged (CoIP) and GST-fused (kinase assay) forms are merged; also called RXR-S56A/S70A(2A); GST-RXRα-2A
For B1, the binding result is recorded as “no binding”.
